Test results taken from patent publication US5866538A, “Insulin preparations containing NaCl” (Novo Nordisk A/S, priority 1996, dated 1999).

Legend:
[1] = Stability (formation of dimers and polymers) of B29-N^ε-myristoyl-des(B30) human insulin solutions, varying NaCl, mannitol and phenol (Example V); type: physicochemical; conditions: pH 7.4
Protocol: Solutions containing 0.6 mM B29-N^ε -myristoyl-des(B30) human insulin, 1.5 or 4.0 mg/ml phenol, 5 mM sodium phosphate, 13.1 μg/ml Zn, and varying amounts of sodium chloride and mannitol were prepared. pH was adjusted to 7.4. Stability data (formation of dimers and polymers) after storage at 25° C. for 13 weeks or 37° C. for 8 weeks are presented in the following table 7.

[2] = Stability (formation of dimers and polymers) of B29-N^ε-myristoyl des(B30) human insulin solutions, glycerol or mannitol, varying NaCl (Example VI); type: physicochemical; conditions: pH 7.5
Protocol: Solutions containing 0.6 mM B29-N^ε -myristoyl des(B30) human insulin, 1.5 mg/ml phenol and 1.72 mg/ml m-cresol, 16 mg/ml glycerol or 36 mg/ml mannitol, 13.1 μg/ml Zn, 7 mM sodium phosphate and varying amounts of sodium chloride were prepared. pH was adjusted to 7.5. Stability data (formation of dimers and polymers) after storage at 25° C. for 13 weeks or 37° C. for 8 weeks are presented in the following table 8.

B29-N^ε -myristoyl-des(B30) human insulin
Di- & polymers (%) formed ([1]; 8 weeks at 37° C., NaCl 20 mM, mannitol 31 mg/ml, phenol 1.5 mg/ml): 0.77%
Di- & polymers (%) formed ([1]; 8 weeks at 37° C., NaCl 20 mM, mannitol 31 mg/ml, phenol 4.0 mg/ml): 0.77%
Di- & polymers (%) formed ([1]; 8 weeks at 37° C., NaCl 50 mM, mannitol 22 mg/ml, phenol 1.5 mg/ml): 0.71%
Di- & polymers (%) formed ([1]; 8 weeks at 37° C., NaCl 50 mM, mannitol 22 mg/ml, phenol 4.0 mg/ml): 0.71%
Di- & polymers (%) formed ([1]; 8 weeks at 37° C., NaCl 75 mM, mannitol 13 mg/ml, phenol 1.5 mg/ml): 0.65%
Di- & polymers (%) formed ([1]; 8 weeks at 37° C., NaCl 75 mM, mannitol 13 mg/ml, phenol 4.0 mg/ml): 0.70%
Di- & polymers (%) formed ([1]; 8 weeks at 37° C., NaCl 100 mM, mannitol 5 mg/ml, phenol 1.5 mg/ml): 0.66%
Di- & polymers (%) formed ([1]; 8 weeks at 37° C., NaCl 100 mM, mannitol 5 mg/ml, phenol 4.0 mg/ml): 0.68%
Di- & polymers (%) formed ([1]; 13 weeks at 25° C., NaCl 20 mM, mannitol 31 mg/ml, phenol 1.5 mg/ml): 0.40%
Di- & polymers (%) formed ([1]; 13 weeks at 25° C., NaCl 20 mM, mannitol 31 mg/ml, phenol 4.0 mg/ml): 0.42%
Di- & polymers (%) formed ([1]; 13 weeks at 25° C., NaCl 50 mM, mannitol 22 mg/ml, phenol 1.5 mg/ml): 0.35%
Di- & polymers (%) formed ([1]; 13 weeks at 25° C., NaCl 50 mM, mannitol 22 mg/ml, phenol 4.0 mg/ml): 0.37%
Di- & polymers (%) formed ([1]; 13 weeks at 25° C., NaCl 75 mM, mannitol 13 mg/ml, phenol 1.5 mg/ml): 0.34%
Di- & polymers (%) formed ([1]; 13 weeks at 25° C., NaCl 75 mM, mannitol 13 mg/ml, phenol 4.0 mg/ml): 0.39%
Di- & polymers (%) formed ([1]; 13 weeks at 25° C., NaCl 100 mM, mannitol 5 mg/ml, phenol 1.5 mg/ml): 0.31%
Di- & polymers (%) formed ([1]; 13 weeks at 25° C., NaCl 100 mM, mannitol 5 mg/ml, phenol 4.0 mg/ml): 0.37%
Di- & polymers (%) formed ([2]; 8 weeks at 37° C., NaCl 5 mM, glycerol 16 mg/ml): 2.55%
Di- & polymers (%) formed ([2]; 8 weeks at 37° C., NaCl 5 mM, mannitol 36 mg/ml): 2.28%
Di- & polymers (%) formed ([2]; 8 weeks at 37° C., NaCl 10 mM, glycerol 16 mg/ml): 2.25%
Di- & polymers (%) formed ([2]; 8 weeks at 37° C., NaCl 10 mM, mannitol 36 mg/ml): 1.90%
Di- & polymers (%) formed ([2]; 8 weeks at 37° C., NaCl 20 mM, glycerol 16 mg/ml): 1.82%
Di- & polymers (%) formed ([2]; 8 weeks at 37° C., NaCl 20 mM, mannitol 36 mg/ml): 1.61%
Di- & polymers (%) formed ([2]; 8 weeks at 37° C., NaCl 30 mM, glycerol 16 mg/ml): 1.83%
Di- & polymers (%) formed ([2]; 8 weeks at 37° C., NaCl 40 mM, glycerol 16 mg/ml): 1.78%
Di- & polymers (%) formed ([2]; 8 weeks at 37° C., NaCl 40 mM, mannitol 36 mg/ml): 1.56%
Di- & polymers (%) formed ([2]; 8 weeks at 37° C., NaCl 50 mM, glycerol 16 mg/ml): 1.68%
Di- & polymers (%) formed ([2]; 13 weeks at 25° C., NaCl 5 mM, glycerol 16 mg/ml): 1.08%
Di- & polymers (%) formed ([2]; 13 weeks at 25° C., NaCl 5 mM, mannitol 36 mg/ml): 1.05%
Di- & polymers (%) formed ([2]; 13 weeks at 25° C., NaCl 10 mM, glycerol 16 mg/ml): 0.98%
Di- & polymers (%) formed ([2]; 13 weeks at 25° C., NaCl 10 mM, mannitol 36 mg/ml): 0.84%
Di- & polymers (%) formed ([2]; 13 weeks at 25° C., NaCl 20 mM, glycerol 16 mg/ml): 0.80%
Di- & polymers (%) formed ([2]; 13 weeks at 25° C., NaCl 20 mM, mannitol 36 mg/ml): 0.71%
Di- & polymers (%) formed ([2]; 13 weeks at 25° C., NaCl 30 mM, glycerol 16 mg/ml): 0.80%
Di- & polymers (%) formed ([2]; 13 weeks at 25° C., NaCl 40 mM, glycerol 16 mg/ml): 0.79%
Di- & polymers (%) formed ([2]; 13 weeks at 25° C., NaCl 40 mM, mannitol 36 mg/ml): 0.70%
Di- & polymers (%) formed ([2]; 13 weeks at 25° C., NaCl 50 mM, glycerol 16 mg/ml): 0.72%
